Test results taken from patent US20040137581A1 (Xencor, published 2004).
Read-outs that look alike come from different tables or passages of the source.

B1: IFN1_1 (ligand)
chain: MGSSHHHHHHSSGLVPRGSHMSYNLLGFLQRSSNFQSQKLLWQLNGRLEYCLKDRMNFDIPEEIKQLQQFQKEDAALTIYEMLQNIFAIFRQDSSSTGWNETIVENLLANVYHQINHLKTVLEEKLEKEDFTRGKLMSSLHLKRYYGRILHYLKAKEYSHCAWTIVRVEILRNFYFINRLTGYLRN
B2: IFB_GM2 (ligand)
chain: MGSSHHHHHHSSGLVPRGSHMSYNLLGFLQRSSNFQSQKLLWQLNGRLEYCLKDRMNFDIPEEIKQSQQSQKEDAALTIYEMLQNIFAIFRQDSSSTGWNETIVENLLANVYHQINHLKTVLEEKSEKEDSTRGKSMSSSHLKRYYGRILHYLKAKEYSHCAWTIVRVEILRNFYFINRLTGYLRN
B3: IFB1_39 (ligand)
chain: MGSSHHHHHHSSGLVPRGSHMSYNQLGELQRSSNFQSQKLLWQLNGRLEYCLKDRMNFDIPEEIKQLQQFQKEDAALTIYEMLQNIFAIFRQDSSSTGWNETIVENLLANVYHQINHLKTVLEEKLEKEDNTRGKEMSSLHLKRYYGRILHYLKAKEYSHCAWTIVRVEILRNFYFINRLTGYLRN
B4: IFB1_23 (ligand)
chain: MGSSHHHHHHSSGLVPRGSHMSYNQLGELQRSSNFQSQKLLWQLNGRLEYCLKDRMNFDIPEEIKQLQQFQKEDAALTIYEMLQNIFAIFRQDSSSTGWNETIVENLLANVYHQINHLKTVLEEKLEKEDFTRGKEMSSLHLKRYYGRILHYLKAKEYSHCAWTIVRVEILRNFYFINRLTGYLRN
B5: IFB1_64 (ligand)
chain: MGSSHHHHHHSSGLVPRGSHMSYNQLGELQRSSNFQSQKLLWQLNGRLEYCLKDRMNFDIPEEIKQKQQFQKEDAALTIYEMLQNIFAIFRQDSSSTGWNETIVENLLANVYHQINHLKTVLEEKLEKEDNTRGKEMSSRHLKRYYGRILHYLKAKEYSHCAWTIVRVEILRNFYFINRLTGYLRN
B6: IFB1_36 (ligand)
chain: MGSSHHHHHHSSGLVPRGSHMSYNLLGELQRSSNFQSQKLLWQLNGRLEYCLKDRMNFDIPEEIKQLQQFQKEDAALTIYEMLQNIFAIFRQDSSSTGWNETIVENLLANVYHQINHLKTVLEEKLEKEDNTRGKEMSSLHLKRYYGRILHYLKAKEYSHCAWTIVRVEILRNFYFINRLTGYLRN
B7: IFB1_2 (ligand)
chain: MGSSHHHHHHSSGLVPRGSHMSYNQLGFLQRSSNFQSQKLLWQLNGRLEYCLKDRMNFDIPEEIKQLQQFQKEDAALTIYEMLQNIFAIFRQDSSSTGWNETIVENLLANVYHQINHLKTVLEEKLEKEDFTRGKLMSSLHLKRYYGRILHYLKAKEYSHCAWTIVRVEILRNFYFINRLTGYLRN
B8: IFB1_15 (ligand)
chain: MGSSHHHHHHSSGLVPRGSHMSYNQLGELQRSSNFQSQKLLWQLNGRLEYCLKDRMNFDIPEEIKQLQQFQKEDAALTIYEMLQNIFAIFRQDSSSTGWNETIVENLLANVYHQINHLKTVLEEKLEKEDNTRGKLMSSLHLKRYYGRILHYLKAKEYSHCAWTIVRVEILRNFYFINRLTGYLRN
B9: IFB1_7 (ligand)
chain: MGSSHHHHHHSSGLVPRGSHMSYNQLGELQRSSNFQSQKLLWQLNGRLEYCLKDRMNFDIPEEIKQLQQFQKEDAALTIYEMLQNIFAIFRQDSSSTGWNETIVENLLANVYHQINHLKTVLEEKLEKEDFTRGKLMSSLHLKRYYGRILHYLKAKEYSHCAWTIVRVEILRNFYFINRLTGYLRN

Assays:
[1] = molecular target: T1, type I interferon receptor (UniProt P17181 28-557; P48551 27-515, limits assumed); experiment: cell-based or functional assay
T1 sequence (looked up) 1: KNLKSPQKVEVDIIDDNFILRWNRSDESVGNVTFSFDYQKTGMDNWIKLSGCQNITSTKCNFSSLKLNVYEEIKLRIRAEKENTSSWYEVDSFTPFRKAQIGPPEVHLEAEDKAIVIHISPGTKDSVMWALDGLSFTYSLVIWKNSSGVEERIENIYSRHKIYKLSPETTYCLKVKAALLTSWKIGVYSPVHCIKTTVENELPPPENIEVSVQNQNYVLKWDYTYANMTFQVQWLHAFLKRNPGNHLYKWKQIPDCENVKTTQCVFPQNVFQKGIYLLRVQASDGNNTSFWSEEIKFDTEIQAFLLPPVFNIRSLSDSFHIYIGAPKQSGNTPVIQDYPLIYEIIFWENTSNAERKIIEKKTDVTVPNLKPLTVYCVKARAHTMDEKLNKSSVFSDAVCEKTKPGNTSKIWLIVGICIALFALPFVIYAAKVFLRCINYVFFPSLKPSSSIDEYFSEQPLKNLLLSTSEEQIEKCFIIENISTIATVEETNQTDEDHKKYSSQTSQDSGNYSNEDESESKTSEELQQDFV
T1 sequence (looked up) 2: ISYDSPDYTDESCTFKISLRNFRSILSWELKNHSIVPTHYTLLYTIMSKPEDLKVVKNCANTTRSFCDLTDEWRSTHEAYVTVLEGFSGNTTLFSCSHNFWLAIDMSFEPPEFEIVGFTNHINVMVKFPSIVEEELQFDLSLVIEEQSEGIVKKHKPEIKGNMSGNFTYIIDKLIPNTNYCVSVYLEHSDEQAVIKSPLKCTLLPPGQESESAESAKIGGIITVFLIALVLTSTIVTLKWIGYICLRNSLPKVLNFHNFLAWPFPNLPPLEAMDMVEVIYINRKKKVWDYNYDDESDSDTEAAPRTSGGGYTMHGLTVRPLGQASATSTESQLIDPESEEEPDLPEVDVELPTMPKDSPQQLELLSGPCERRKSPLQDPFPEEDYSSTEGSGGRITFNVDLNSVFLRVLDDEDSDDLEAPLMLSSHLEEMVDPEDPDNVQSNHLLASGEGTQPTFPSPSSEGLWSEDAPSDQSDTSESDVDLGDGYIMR

[2] = molecular target: T1, type I interferon receptor; experiment: cell-based or functional assay; remark: listed apart in the source

Binder	EC50, ISRE-luciferase reporter assay in 293T cells [1]	EC50 wt/EC50 var, ISRE-luciferase reporter assay in 293T cells [1]	EC50, ISRE-luciferase reporter assay in 293T cells [2]	EC50 wt/EC50 var, ISRE-luciferase reporter assay in 293T cells [2]
B1	1.9 ng/mL	1 ratio	5.31 ng/mL	1 ratio
B2	130 ng/mL	0.015 ratio	–	–
B3	–	–	0.193 log ng/ml	27.5 ratio
B4	–	–	0.277 log ng/ml	19.2 ratio
B5	–	–	0.24 log ng/ml	22.1 ratio
B6	–	–	0.294 log ng/ml	18 ratio
B7	–	–	0.428 log ng/ml	12.4 ratio
B8	–	–	0.319 log ng/ml	16.6 ratio
B9	0.074 ng/mL	25.7 ratio	0.179 log ng/ml	29.6 ratio
